Assays:
[1] = molecular target: human wild-type TTR protein in native conformation (human) (UniProt P02766); assay: SPR, antibody captured by anti-human IgG-Fc, TTR 3.2-316 nM, Langmuir 1:1 fit
[2] = molecular target: misfolded-aggregated human wild-type TTR (human), P02766; assay: as above; settings: remark: other sources report otherwise
[3] = molecular target: native TTR-L55P (human), P02766; assay: as above; settings: remark: other sources report otherwise
[4] = molecular target: native TTR-V30M (human), P02766; assay: as above; settings: remark: other sources report otherwise
[5] = molecular target: misfolded-aggregated recombinant V30M-TTR (human), P02766; assay: direct ELISA, antigen coated at 10 µg/ml; settings: remark: other sources report otherwise
[6] = molecular target: misfolded-aggregated human wild-type TTR (human), P02766; assay: direct ELISA, antigen coated at 10 µg/ml; settings: remark: other sources report otherwise

Kd [1]: > 0.316 µM
Kd [2]: 0.012 µM
koff [2]: 0.00027 s⁻¹
kon [2]: 23000 M⁻¹ s⁻¹
Kd [3]: > 0.1 µM
Kd [4]: 0.033 µM
koff [4]: 0.00024 s⁻¹
kon [4]: 7400 M⁻¹ s⁻¹
EC50 [5]: 0.005 µM
EC50 [6]: 0.0039 µM
B1: NI-301.35G11 (antibody, V domains shown)
VH: EVQLVESGGGLVQPGGSLRLSCVASGFTFSSYAMSWVRQVPGKGLEWVSSISGSGDTTKYTDSVKGRFTISRDNSKNTVFLQMSSLRAEDTALYYCVKDGSGRIDPFALWGQGTMVTVSS
VL: EIVMTQSPLSLPVTLGQPASISCRSSRSLVYSDGNIYLNWFQQRPGQSPRRLIYKVSNRDSGVPDRFSGSGSDTDFTLRISRVEAEDVGVYYCMQGTHWPRTFGQGTKVEIK
